Source: publication PMC8020655

Target: His6-PopA_(R357G) labelled with Atto-488 (Caulobacter crescentus)
Test: MST

## His6-SmrF (from UniProt A0A0H3C860 1-122) (natural protein)
  Kd: 5.1 µM
